Source: PMC9372883 (Antibody Therapeutics, 2022)

T1: P9-CCR7 (human, UniProt P32248 25-378)
T1 sequence: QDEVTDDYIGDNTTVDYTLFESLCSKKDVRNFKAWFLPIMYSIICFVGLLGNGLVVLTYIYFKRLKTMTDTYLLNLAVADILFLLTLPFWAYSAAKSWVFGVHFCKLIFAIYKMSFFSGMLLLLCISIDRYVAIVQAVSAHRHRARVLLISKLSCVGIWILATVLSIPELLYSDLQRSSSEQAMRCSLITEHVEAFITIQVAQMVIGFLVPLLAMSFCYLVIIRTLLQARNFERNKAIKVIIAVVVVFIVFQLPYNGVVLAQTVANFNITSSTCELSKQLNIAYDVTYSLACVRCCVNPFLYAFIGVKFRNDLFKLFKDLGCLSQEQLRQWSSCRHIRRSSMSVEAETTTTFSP


Target: T1, P9-CCR7
Assay: ELISA

| Kd [nM] | Binder |
| --- | --- |
| 19 | CCL19-H6-Flag (ligand) GTNDAEDCCLSVTQKPIPGYIVRNFHYLLIKDGCRVPAVVFTTLRGRQLCAPPDQPWVERIIQRLQRTSAKMKRRSS |
| 11 | CCL21-H6-Flag (ligand) SDGGAQDCCLKYSQRKIPAKVVRSYRKQEPSLGCSIPAILFLPRKRSQAELCADPKELWVQQLMQHLDKTPSPQKPAQGCRKDRGASKTGKKGKGSKGCKRTERSQTPKGP |
